# Experimental data as given in a protein production outcome set (Wang et al. 2014).
# Assay: label from the status in PepcDB records
row,Sequence,protein production
1,MDKIHAMQLFIRVADLESFSRAAETLALPKGSVSRQIQALESHLGVRLLHRTTRRVQLTQDGMVYYERAKDLLSNLDELDGMFQHDPASISGRLRVDMPVGFAKKMVIPHLPTFLQQYPGIELELSSSDRQVDVIREGFDCVVRVGALKDSGLIARPLGKLTQINCASPDYLARFGYPQSLEDLADHALIHYASTLGVRPPGFEVMIDGAVRWVKTGGILTVNSTETYQAACIAGLGIIQVPRTGVREALRAGDLIEILPQYRAEPLPVSLIYPHRRNLSRRVNLFMEWLGGLMKAYVD,failed
2,MDKKAMWDRFYTENGSKGQFKNFEWFFGFPSVKDLVLPALQAMSCSHSGPLHILDMGCGTSALGPCIYSTSPCAVRVTCADISPVAVKLMEEHTKSTSTQPCNPSSALVFLELDCTQMTGHFKSRSLDLILDKGTTDALVRSKEGQVKAGQILRQSLQVLRPSGSFLQFSDEDPDARLIWLEREVQGAEVTADVGVQEIGELRGVSYFCYQISPRSRPHS,failed
3,MDKLRGMETFIAVVECGSFTGAASRLGLSAVMVGKYIAQLESQLATRLLERNTRRQSLTDAGRVYFDEAKRVMEQVSIAESAVERLRLAPAGTLRVSAPTSFGASVIAPLTATFLQAWPAVRVELDLTNRMVDLVDEGVDLAIRIGEIHQEDLVARYLAPYRMVICAAPAYLARYGTPGTPEDLTDHLCLSHTVWTARNEWRLPGVEGEVRWKRDAVLRCNDGYALRQAAIAGAGLLMQPEVLLADALASGSLVRVLEAWTPQPRPVHLLWRQDRRPLPKLTQFIAHLQQGMADALTTTRASE,failed
4,MDKNALRKQILQKRMALSTIEKSHLDQKINQKLVAFLTPKPCIKTIALYEPIKNEVTFVDFFFEFLKINQIRAVYPKVISDTEIIFIDQETNTFEPNQIDCFLIPLVGFNKDNYRLGFGKGYYDRYLMQLTRQQPKIGIAYSFQKGDFLADPWDVQLDLIINDE,not failed
5,MDKQSSAGGVKRSVPCESNEVNETMPETPTGDSDPQPAPKKMKTSESSTILVVRYRRNVKRTSPEELLNDHARENRINPLQMEEEEFMEIMVEIPAK,failed
6,MDKRRVRAIKTFGAAMETYLAHTRWADSTRAVRKHIIDRDILPVFQNRLLTEIQAEDLRILCNKVKERGAPATAVQIRDIVKQVYVYAIAHGEKVVNPADSVGPSSIALEHHHHHH,not failed
7,MDKTKRKMIYETFMLILILLSLALLPYRNNFTFILNWIIWVIFTLDYLVRLYRADNKWHYVKTHPFQLIAIIPFYGGFRAARIVSFVHLLSITAMGRRYIVPIYSFFRSNGLNRFLMIFVLLVIIIPVPMVFIEPEINNYPDALWWAIVTATTVGYGDIVPVTPIGRILASIMMLFGIAFIGMITSTITNFFRAKKPTNSSTQRANKITQLISETPDLTKEEIAVVEQFLTLRKKELADENTKSDSE,failed
8,MDKTQSYDIFLIAPPGLEQVLAEEATACGFDEPRVVPGGVETRGPWSEVMRANLVLRGAGRVLVRIGGFPAVHLAQLDKRARKFAWGDFLRPDRPIRVEAVSRKSKIYHAGAAKQRVERAITEELGAPISDEAEIRLMLRIERDFCTFSIDTSGEALHKRGHKEAVGKAPMRETMAALFLRQCGFDGAEPVLDPMCGSGSFVIEAAEWAAGLMPGRSRSFAFEQLAGFDAAQWQSMRNAAGAGGRPESLYSGSDRNAGAIDASRANATRAGVADFCAFHQRPVSDIRPPEGRPGLVIVNPPYGARIGDQARLRSLYGSLGKVLMDRFSGWRVGLITSEMSLARSTRLPFQAPGPVVDHGGIKVRLYQSVRLR,failed
9,MDKTYILPIPNEYQNLARELSMQSGKIYSKAVSFLKKINRKGLRIKQKTFYRYMEWWIHQKSFILHSQSKQAAYQQAWTNYTATLRKIKKAKKKNKNTSKIRLPYRNKKYNKVCFKDSAIKLEGDNLILVNMKGAERIVIDNVRIGIKPKYAELLYHADKGKYYVHVVVEIAKEQEAKKRSGKTIAIDLGVIHPMVCFDGNKVVVYNGGVLNSILRYRNKKQSLLQSKISGCQKGSKRRGKLQRAKTKLLRRLSNLIRDVLGKYTSHLIGYCVENGITTIVMGDVKGIRNSKKKSNKVASQKVHQWLFRKISKMIEQKAEFAGIEVVYVKENMTSQICPVCGSKNKPLDRNYECKSCGFRYHRDGVGAVNIYRKYTGESLVVGRLACPTGVRFKSHLRCPVEWNTHPWDKNCSTGKVA,failed
10,MDLCRSSILLLIIALLSPRTLSMRYELKSSKTKCIGEEIHENAMSIGKYFIVNPNEDNHPLPDSHKIIVKVMPPQGKNLHEADKVEAGQFSFTAYENGSYVACITAIDYKPETTLTIDFDWKTGVHSKEWTNVAKKSQVDMMEYQVKTLMDTVISIHEEMYYLREREEEMQELNRSTNSKMAWLSFGSLVVCLSVAGLQFWHLKTFFEKKKLI,failed
11,MDLGKPMKSVLVVALLVIFQVCLCQDEVTDDYIGDNTTVDYTLFESLCSKKDVRNFKAWFLPIMYSIICFVGLLGNGLVVLTYIYFKRLKTMTDTYLLNLAVADILFLLTLPFWAYSAAKSWVFGVHFCKLIFAIYKMSFFSGMLLLLCISIDRYVAIVQAVSAHRHRARVLLISKLSCVGIWILATVLSIPELLYSDLQRSSSEQAMRCSLITEHVEAFITIQVAQMVIGFLVPLLAMSFCYLVIIRTLLQARNFERNKAIKVIIAVVVVFIVFQLPYNGVVLAQTVANFNITSSTCELSKQLNIAYDVTYSLACVRCCVNPFLYAFIGVKFRNDLFKLFKDLGCLSQEQLRQWSSCRHIRRSSMSVEAETTTTFSP,failed
12,MDLIITFGLLTLVVLLEFIVVPAIILKRGTKFSTIYNYPIYIINSTEINAYSLTSVWGKFIVLTRGLVNGEDEEHIKAAIMHEVGHLKLNHHVKMSLYIISVIMVFTYLLGVNMLTLIPFALVALLVQRYLQRRLELGADRFALRFINKKMLEDLITKYDMKETTFLSTHPNIHVRLKNINE,failed
13,MDLLIALLPALFWGSVVLINVLVGGGPYNQIRGTTLGTLIIGIILLLTGNAKFDDLAVIIVGLISGAFWALGQGYQLKSISLIGVSKTMPISTGLQLVGTTLFSAIFLGEWSTGIQVTLGLVAMVLLVIGIALTSIKGKNEASGGNNKFGKAIPILIISTVGYVVYVVVAQIFGVDGMNALFFQSIGMAIGGLILSAKHETSVKSTMWNIIPGVIWGIGNLFMFYSQPKVGVATSFSFSQLLVIVSTLGGIFLLGERKDKRQMIGIWAGIVLIIIAAFILGNLKG,failed
14,MDLLSLLDINNTLVNIPIGGGYAMSWVEGFGTIFGLLCIWFASQEKTINYVFGLLNVTLFAVIFFQIQLYGLLLLQLFFFCANIYGWYAWTKPNSSGETLEVRWLSQSKLLAISGGSIAAIALLTIYIDPFFFSLATIAVDGMNLFGAELAEPVLAPDAFPFWDSTMTVLSIVAQILMTRKYVENWMLWIVINIISIGIYATQGVFAMSVQYSILMFIAANGAREWARTAKENINNKQVEKAIA,failed
15,MDLRIKNKAKKIKAVFFDIDDTLRIKDTGYMPDSIKKVFESLQEKDILTGIASGRAPYGVVPEIRQLNPDFFVTINGSYVINHKGEELSNDPIPKDIIEKYVVWCQEIGIEYGFAGKDKAVVSKRTELVDKALVPVYGFCPVEPDFYKNHEVYHMWTFEDVGDSLQLSDELKEDVRLVRWHENSSDVIKNGISKASGLAHVLKKVHLKPENVLFFGDGPNDMEIFDYVGLKVAMGNGHGDLKEKADFITKNVEEDGILYALEELGLVEKELQFPQLDVTNDDAPMALIKTNYGDLKVKLFPKQAPKTVANFVALAKDGYYDGVIFHRVIKDFMIQGGDPTGTGMGGESIYGERFEDEFSEELYNLRGALSMANAGPNTNGSQFFIVQNQNLPYSAKELERGGWPKEIAAAYAENGGTPHLDRRHSVFGQLVDQASYEALDNIANVDTGVADKPIDDIVIESIEVIDDENRG,failed
16,MDLVPLKLVTIVAESLLEKRLVEEVKRLGAKGYTITPARGEGSRGIRSVDWEGQNIRLETIVSEEVALRILQRLQEEYFPHYAVIAYVENVWVVRGEKYV,not failed
17,MDMLHAMRTFTRVVECGSFAAAANALDISAAQVSRIVAELENQLQTRLLHRTTRRLRMSEAGERFLERARQIMLLTEEAVGEARGAHLTPRGHLRLHCPHGMGLLLMPLVAGYNMLYPEVVIELTLSQRNPDPLAEGHDVVITVDGALPDSQLIAVPLGNIFSIPCAAPGYLDTHGVPERPEDLHGHRCLRMAYPMYEGDWVFPQGVDQCVIAPNDSFSTNVADAMLVASELGMGIGLLPFYTASEAIGQGRLCRLLAPYRLRESALYAMYPSRHYLDAKVRTWIDYLKEQLPALFEGHARVVDDARYWR,failed
18,MDMLKKRKLDENGIAMLHDGVSGSVSFRLVPQDARKITELFFADQLLDILQEAIVRHPDVLFFFF,failed
19,MDMRSHEMIERRREDNGNNNGGVVISNIISTNIDDNCNGNNNNTRVSCNSQTLDHHQSKSPSSFSISAAAKPTVRYRECLKNHAASVGGSVHDGCGEFMPSGEEGTIEALRCAACDCHRNFHRKEMDGVGSSDLISHHRHHHYHHNQYGGGGGRRPPPPNMMLNPLMLPPPPNYQPIHHHKYGMSPPGGGGMVTPMSVAYGGGGGGAESSSEDLNLYGQSSGEGAGAAAGQMAFSMSSSKKRFRTKFTTDQKERMMDFAEKLGWRMNKQDEEELKRFCGEIGVKRQVFKVWMHNNKNNAKKPPTPTTTL,failed
20,MDNDAAKKQLEFLKGGFKLLCQSGGAIFGDADFDGGNLEASEWIAMTEAQFLGGDYSEKDKLACVSGFFGGQAKFWFHKELSWIPFNSWSQVKDGLLLTFGNNRDKKRVLVELDLEMKHWIKDFDRKREPHKFLES,failed
21,MDNVELSPATRWGMIATGLLQGLVCYLLIAWLSGKNHSWIVYGVPATVAFSSVLLFSVISFKQKRLWGWLALVFIATLGMSGWLKWQTDGMTPWRAEKALWDFGCYLLLMAMLLLPWIQQSLRIRNDSSRYRYFYQSVWHNVLILLVIFLANGLTWLVLLLWSELFKLVGITFFKTLFFATDWFIYLTLGLVTALAVILARTQSRLIDSIQKLFTLIATGLLPLVSLLTLMFIITLPFTGLSAISRHISAAGLLLTLAFLQLILMAIVRDPQKASLPWTGPLRCLIKTALLVAPLYVFIAAWALWLRVAQYGWTVDRLQGALAVLVLLVWSLGYFVSIVWRKGQNPLVLQGKVNLAVSLLVLVILVLLNSPVLDSMRISVNSHMARYQSGKNTPDQVTIYMLEHSGRYGRAALESLKSDAEYMKDPKRARDLLMALDGEQHLQQQISEKVLAENVLIAPGSGKPDATFWSALIQDRYNVMTCIEKDACVLVEQDLNSDGRAERILFAFDDERYIVYGFDPDKKEWQELTMSLLPRDITKEKLLTAAKDGKLGTKPKAWRDLVVDGERLDVNLNE,failed
22,MDPAEMRYLEEEDGPLMKTIKGSITGFGAGTIYGTILATWKDVPRVERNVALPGLIRTLKMMGTHGLTFAAIGGVYIGVEQLVQNFRSKRDFYNGAIGGFVAGASVLGYRARSIPTAIAAGATLAVTSALIDSGGQTTRVDNGREYYPYTVEKRAEADS,not failed
23,MDPESIMAADGTDSAPANGGLAMENVCVKENGAVSVETVDTTSESQNENSANSSTLDTIEHVKEAAEGTQVEHVDDSKCMKGEKAQRKPRHEKLSGGKNNSSVHIKKSKEGKSADAKVAASNGSVAPNVQTTNPLKSKSFNGREAQVTKQGKHDSAPAESADGEKVKPKSQKKQAHETSEDDTQSSNSPKADDGKPRKVGALPNYGFSFKCDQRAEKRKEFYVKLEEKTHAKEEEINSMQAKSKETQEAELRMLRKSLNFKATPMPSFYQEPQPPKTELKKIPPTRPKSPKLGRKKTASGADSEETQTPRLGRLSLDERASKDNPTAKGIMPTVDLKKQPVRKSLPRLPSQKTVLPDGKPAPAKAAIIPAKVRPEKKKLEKDAETVNQTSHPTEEEAQVTVSSNADVEDSHETVSPRMNEDRADKSIEVSEAVAVEH,failed
24,MDPFASLAEAYEAWYGTPLGAYVIAEEERALKGLLPPGESLLEVGAGTGYWLRRLPYPQKVGVEPSEAMLAVGRRRAPEATWVRAWGEALPFPGESFDVVLLFTTLEFVEDVERVLLEARRVLRPGGALVVGVLEALSPWAALYRRLGEKGVLPWAQARFLAREDLKALLGPPEAEGEAVFLAPEAHPPYEEADLAGRRAGNRPALYLGRWR,not failed
